Usually Kd stands for the free concentration of one partner at which half of the binding sites on the other are occupied at equilibrium, for simple one-to-one binding.

This note sets out measurements from publication PMC7862700, “An all-to-all approach to the identification of sequence-specific readers for epigenetic DNA modifications on cytosine”.

One series addresses T1, SPDEF (Homo sapiens, UniProt O95238 1-335).
T1 sequence: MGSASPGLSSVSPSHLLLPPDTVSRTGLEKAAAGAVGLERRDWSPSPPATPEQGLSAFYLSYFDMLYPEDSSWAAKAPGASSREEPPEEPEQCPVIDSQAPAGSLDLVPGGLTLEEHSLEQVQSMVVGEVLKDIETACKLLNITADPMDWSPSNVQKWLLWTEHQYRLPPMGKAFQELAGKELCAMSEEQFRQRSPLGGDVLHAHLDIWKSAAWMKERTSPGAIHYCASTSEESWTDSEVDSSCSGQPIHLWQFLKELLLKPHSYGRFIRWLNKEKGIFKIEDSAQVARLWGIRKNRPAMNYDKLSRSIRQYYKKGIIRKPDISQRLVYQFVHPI
Put plainly: BLI (OCTET); EMSA: 25 mM HEPES pH 8.0, 100 mM NaCl, 50 mM KAc, 5 mM MgCl2, 5% glycerol, 1 mM DTT, 0.1 mg/mL BSA, ~22 C, 5 nM probe; OCTET: 50 mM HEPES pH 8.0, 100 mM NaCl, 50 mM KAc, 5 mM MgCl2, 40 mM glutathione, 5 mg/mL BSA, 0.05% Tween-20. Conditions: protein: recombinant; tags: N-terminal GST; label: 5' biotin on strand 2 (Bio-T7 primer); blunt.

The target of another series is T2, ETS2 (Homo sapiens, UniProt P15036 1-469).
T2 sequence: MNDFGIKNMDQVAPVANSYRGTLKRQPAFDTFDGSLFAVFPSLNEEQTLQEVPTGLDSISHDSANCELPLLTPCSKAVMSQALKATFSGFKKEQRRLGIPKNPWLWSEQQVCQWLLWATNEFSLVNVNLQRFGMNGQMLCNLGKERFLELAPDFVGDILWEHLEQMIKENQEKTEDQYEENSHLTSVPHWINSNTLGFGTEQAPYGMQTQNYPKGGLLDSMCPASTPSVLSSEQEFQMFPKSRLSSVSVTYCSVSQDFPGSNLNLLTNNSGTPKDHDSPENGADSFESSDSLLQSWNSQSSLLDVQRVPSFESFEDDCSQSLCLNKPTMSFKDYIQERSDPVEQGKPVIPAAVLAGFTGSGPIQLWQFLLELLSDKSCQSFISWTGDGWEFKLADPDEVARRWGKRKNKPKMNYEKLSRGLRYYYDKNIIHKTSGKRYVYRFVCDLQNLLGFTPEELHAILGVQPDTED
Described as above. Conditions: protein: recombinant; tags: N-terminal GST; label: 5' biotin on strand 2 (Bio-T7 primer); blunt.

B1: ETS family probe (dsDNA)
DNA 1: ACTTCCGGTTATAGTGAGTGCTATTA
DNA 2: TAATAGCACTCACTATAACCGGAAGT
For the molecule B1, the Kd with SPDEF was determined as 132 nM; in the series with ETS2, 1.8 nM.
